Laboratory results from US20260061022A1 (GI INNOVATION, published 2026).
Values belong to the binder of their own block, whether it stands above or below them.

Tests used:
IgE [1] = target: T1, IgE (Homo sapiens (Human), UniProt P01854 1-427); test: SPR (ProteOn XPR36), IgE coated on the GLC sensor chip, IgETRAP flowed at 0, 3.2, 6.3, 12.5, 25 and 50 nM
T1 construct: also called immunoglobulin E
T1 constant: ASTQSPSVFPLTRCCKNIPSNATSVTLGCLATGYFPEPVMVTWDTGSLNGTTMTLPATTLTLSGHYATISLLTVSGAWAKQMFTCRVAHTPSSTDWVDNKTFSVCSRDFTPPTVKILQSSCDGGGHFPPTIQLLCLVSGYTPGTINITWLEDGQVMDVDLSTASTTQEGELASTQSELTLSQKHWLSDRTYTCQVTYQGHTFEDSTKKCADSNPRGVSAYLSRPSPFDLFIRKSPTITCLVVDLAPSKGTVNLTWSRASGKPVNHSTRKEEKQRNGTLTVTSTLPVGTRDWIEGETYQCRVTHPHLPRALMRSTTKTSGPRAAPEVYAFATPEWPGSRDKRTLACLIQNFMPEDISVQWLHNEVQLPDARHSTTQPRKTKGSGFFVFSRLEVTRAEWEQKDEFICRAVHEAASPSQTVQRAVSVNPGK

IgG Fc gamma receptor I = target: T2, IgG Fc gamma receptor I (UniProt P12314 16-288); test: BLI (Octet RED384), FcγRI immobilised on AR2G biosensor, IgETRAP in solution
T2 construct: Bought recombinant protein immobilised on an AR2G biosensor; also called FcγRI
Protocol: (§1) Specifically, FcγRI, FcγRIIA, FcγRIIB, FcγRIIIA, and FcγRIIIB recombinant proteins (R & D Systems Inc., 5 μg/ml) which are Fc gamma receptors were immobilized in 300 mM acetate buffer (pH 5) on the activated AR2G biosensor. As a running buffer, PBS containing 0.1% Tween-20 and 1% bovine serum was used. All measurements were carried out at 30° C. with a sample plate shaker at a rate of 1,000 rpm.

IgE [2] = target: T1, IgE; test: kinetic binding measurement of Table 3, KD against omalizumab as reference; the end is tied to FcεRIαECD-Fc2ST by 'exhibits the highest IgE-binding affinity which is 69-fold higher than omalizumab'
Protocol: (§2) Here, the experiments were conducted by identifying zero base using 25 mM NaOH as a regeneration buffer, and then repeating the above steps. Thereafter, a binding curve was identified using a protein binding analyzer (ProteOn XPR36, Bio-Rad Laboratories, Inc., USA).

IgE [3] = target: T1, IgE; test: SPR, ProteOn XPR36, IgE coated on GLC chip, analyte flowed
Protocol: as §2

[4] = target: T3, IgG Fc gamma receptor IIB (UniProt P31994 46-217, limits assumed); test: BLI (Octet RED384), FcγRIIB immobilised on AR2G biosensor, IgETRAP in solution
T3 construct: Bought recombinant protein immobilised on an AR2G biosensor; also called FcγRIIB
T3 sequence (looked up): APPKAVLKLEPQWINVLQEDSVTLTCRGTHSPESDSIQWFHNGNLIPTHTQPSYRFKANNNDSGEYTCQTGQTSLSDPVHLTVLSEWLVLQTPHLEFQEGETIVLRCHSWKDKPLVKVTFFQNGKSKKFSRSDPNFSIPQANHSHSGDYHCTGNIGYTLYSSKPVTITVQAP
Protocol: as §1

human IgE = human IgE (human, UniProt P01854-1 1-428); test: cell-based or functional assay
[5] = target: IgE (Experimental Example 4); test: cell-based or functional assay
[6] = target: T4, IgG Fc gamma receptor IIIB (UniProt O75015 20-208, limits assumed); test: BLI response at 4 uM, FcγRIIIB immobilised on AR2G biosensor
T4 construct: Bought recombinant protein immobilised on an AR2G biosensor; also called FcγRIIIB
Protocol: as §1

[7] = target: T5, IgG Fc gamma receptor IIA (UniProt P12318 36-218, limits assumed); test: BLI (Octet RED384), FcγRIIA immobilised on AR2G biosensor, IgETRAP in solution
T5 construct: Bought recombinant protein immobilised on an AR2G biosensor; also called FcγRIIA
T5 sequence (looked up): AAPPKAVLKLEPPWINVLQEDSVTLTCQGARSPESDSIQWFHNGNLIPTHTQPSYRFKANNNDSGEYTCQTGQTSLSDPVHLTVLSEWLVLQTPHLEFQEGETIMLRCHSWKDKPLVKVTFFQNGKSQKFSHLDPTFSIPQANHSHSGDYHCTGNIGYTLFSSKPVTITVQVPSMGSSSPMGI
Protocol: as §1

T4 sequence (O75015 20-208 limits assumed): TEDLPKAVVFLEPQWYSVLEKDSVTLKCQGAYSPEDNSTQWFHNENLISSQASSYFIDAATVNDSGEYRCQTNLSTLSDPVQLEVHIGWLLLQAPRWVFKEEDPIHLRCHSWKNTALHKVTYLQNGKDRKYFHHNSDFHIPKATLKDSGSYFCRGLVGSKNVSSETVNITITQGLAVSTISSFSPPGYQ
T2 sequence (P12314 16-288 limits assumed): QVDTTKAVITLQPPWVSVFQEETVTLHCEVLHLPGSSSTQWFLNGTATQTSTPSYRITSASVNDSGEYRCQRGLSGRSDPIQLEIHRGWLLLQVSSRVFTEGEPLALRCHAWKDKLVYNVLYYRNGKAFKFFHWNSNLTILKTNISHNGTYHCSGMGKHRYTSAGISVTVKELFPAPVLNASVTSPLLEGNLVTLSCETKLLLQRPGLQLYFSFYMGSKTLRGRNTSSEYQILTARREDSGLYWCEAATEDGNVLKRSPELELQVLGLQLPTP

- Kd (IgE [1]): 0.215 nM
- binding result (IgG Fc gamma receptor I): no binding (tested: 4 uM)
- fold change of equilibrium dissociation constant (KD) against omalizumab (printed as 'higher'; meant as higher affinity) (IgE [2]): 22 to 69 fold
- fold better KD than omalizumab (IgE [3]): 69 fold
- fold better kd than omalizumab (IgE [3]): 106 fold
- fold weaker ka than omalizumab (IgE [3]): 1.5 fold
- binding result [4]: no binding (tested: 4 uM)
- IC50, inhibition of β-hexosaminidase secretion by human FcεRI-expressing mouse bone marrow-derived mast cells (human IgE): ~11.2 ng/mL
- fold higher inhibitory ability on mast cell activity than Xolair (human IgE): 58 fold
- IC50 (read off the curve); inhibition ratio (%) of beta-hexosaminidase release from mouse bone marrow-derived mast cells, dimer pre-mixed with IgE at 1 ug/mL [5]: ~0.5 µg/mL
- binding result [6]: no binding (tested: 4 uM)
- binding result [7]: no binding (tested: 4 uM)
B1: FcεRIαECD-Fc2ST (Fc fusion)
chain: VPQKPKVSLNPPWNRIFKGENVTLTCNGNNFFEVSSTKWFHNGSLSEETNSSLNIVNAKFEDSGEYKCQHQQVNESEPVYLEVFSDWLLLQASAEVVMEGQPLFLRCHGWRNWDVYKVIYYKDGEALKYWYENHNISITNATVEDSGTYYCTGKVWQLDYESEPLNITVIKAPREKYWLQRNTGRGGEEKKGSKEKEEQEERETKTPECPSHTQPLGVFLFPPKPKDTLMISRTPEVTCVVVDVSQEDPEVQFNWYVDGVEVHNAKTKPREEQFNSTYRVVSVLTVLHQDWLNGKEYKCKVSNKGLPSSIEKTISKAKGQPREPQVYTLPPSQEEMTKNQVSLTCLVKGFYPSDIAVEWESNGQPENNYKTTPPVLDSDGSFFLYSRLTVDKSRWQEGNVFSCSVMHEALHNHYTQKSLSLSLGK
modifications: sialic acid added to the glycans by co-expressed α-2,6-sialic acid transferase
notes: Homodimer; also called IgETRAP; FcεRIαECD-Fc2 + a2,6-ST

- fold better KD than omalizumab (IgE [3]): 38 fold
- fold better kd than omalizumab (IgE [3]): 73 fold
- fold weaker ka than omalizumab (IgE [3]): 1.9 fold
B2: FcεRIαECD-Fc2 (Fc fusion)
chain: B1 chain
notes: Made in CHO DG44 cells without the sialic acid transferase; Homodimer joined through the hinge cysteine; also called polypeptide dimer

- fold better KD than omalizumab (IgE [3]): 22 fold
- fold better kd than omalizumab (IgE [3]): 45 fold
- fold weaker ka than omalizumab (IgE [3]): 2 fold
B3: FcεRIαECD-Fc3 (Fc fusion)
chain: VPQKPKVSLNPPWNRIFKGENVTLTCNGNNFFEVSSTKWFHNGSLSEETNSSLNIVNAKFEDSGEYKCQHQQVNESEPVYLEVFSDWLLLQASAEVVMEGQPLFLRCHGWRNWDVYKVIYYKDGEALKYWYENHNISITNATVEDSGTYYCTGKVWQLDYESEPLNITVIKAPREKYWLQAQPQAEGSLAKATTAPATTRNTGRGGEEKKGSKEKEEQEERETKTPECPSHTQPLGVFLFPPKPKDTLMISRTPEVTCVVVDVSQEDPEVQFNWYVDGVEVHNAKTKPREEQFNSTYRVVSVLTVLHQDWLNGKEYKCKVSNKGLPSSIEKTISKAKGQPREPQVYTLPPSQEEMTKNQVSLTCLVKGFYPSDIAVEWESNGQPENNYKTTPPVLDSDGSFFLYSRLTVDKSRWQEGNVFSCSVMHEALHNHYTQKSLSLSLGK
notes: Made in CHO DG44 cells without the sialic acid transferase; Homodimer; also called polypeptide dimer

- fold better KD than omalizumab (IgE [3]): 24 fold
- fold better kd than omalizumab (IgE [3]): 40 fold
- fold weaker ka than omalizumab (IgE [3]): 1.7 fold
B4: FcεRIαECD-Fc3ST (Fc fusion)
chain: B3 chain
modifications: sialic acid added to the glycans by co-expressed α-2,6-sialic acid transferase
notes: Homodimer; also called FcεRIαECD-Fc3 + a2,6-ST; polypeptide dimer
